For 15 sequences, protein production results are on record in a protein production outcome set (Wang et al. 2014).

The nature of this series: label from the status in PepcDB records.
For the sequence “NELEKGNDGSGTVDPVNASTLVNVYSDKSGSEASLLVGDVLVKDSRTLTLNVPAACEKVYMKYNTVSGTEATKEFALSPVSRGVDQSTGFNFETNRLASVTLALPEDAVQPTNETDQGYLFYHNTGVVMFEDGWPIQLDSWYDEDFNDVVFEYDLKVTECHSQQMMETVGGKEELLLTLDVRAVGGIYPTVLGVVLDGLKSEYVDRITASLILKGGQGTMTDLAKEELSTKNIVKVENKNWNWSNDTRKEPRFAILTVDKAQAEGTVITLDGLTSLMDNNQDMFQVTQGKVREGLPMLRAEVRLIGKEGLTGAERDAQLAAFRELILDTNRQNFFIKVNGGKEIHMRGYAPTSAYKAEYEALVAGDTTLDANVYYSNTKGSTWGVKLPVGTRHAYERVPFREAYPDFTKWVDSKGVSNQKWYENFVDEKTIRYW”, the protein production entry is on record as “not failed”. With “MATFFSLALYAGSFTFILREGGIPFYYLGVFFAIAVILYLIFNSLSREYVGRAGDAIIVPVSILMVAVAFVLVYISQSIPIISVSVALFTVSLIMFYNSTVRNEVSISTNERIFMGGAGLGGFIGLIVAGVFPGKMSVLDSYMAIIMLAVGLAAVFVFFRRPTGRFSIADAFHVFVRPFNSMEKIRTIEKKLLLLAVSLDEIFVWIAIGASFPFVISAGLGSGMSRPAVMFSVAAAIIIGAALVYVFESSNIPATPFFYPVKDLILVAGLLLLSFMYPASYVAGMIFLALLPVAFIGSVRFLKSQFPSSFDFRQITSFFRNPIMVIAPLMGSILWAVSGAMLFLTAMAFAIFALVIGIIVITNPKIFKVSDPYETANN”, the protein production entry is listed as “failed”. As for “AEIVEGRDYTVLSAPQPTEGDSEHIEVIEFFWYGCPHCSDLHPHLSRWLENKPADVAFRFVPAILRNNWVPGAKTFYAMESLGLTQTLHDKVYHAIHREKTDLSKEATLFDWIGKQGVDRDKFIGAYNSFTVQNQANRSAQMIRQYKLTGVPALVVDGRYLTSGKAGGTPQDTISVLNQLIEK”, the entry is “failed”; as for “ISCSDPNPLDSYTRVPFEKTETDDGNGDGDGDGAGGLFEKGNGTDSKPYMIMNATQIRNMRSVLKSGMKVYFQLGADIDMAGIDDWQSLNGSGDFPYEIDFDGDSHVIKNFKCSAGDYPSFFGVLCGDCRNVGFVNASVSSARQGIGIITGYLGLKDKGNGNKTGRIVNCYTTGEVIGSGAAGGIAGVLANSYDGQESYIKNCYSNATVSDRAASGGKAGGIAGRKVGVGGFIENCYAYGAVSATKGGVGGILGQIDKSCDIAIKNSAAWSNLTGVDASSTVGRIVGVSASLGSYENCYACESIVLKVNEKTITASDESSATGTTFHGVAKSAEELGNIIVAWNPNLWKKGTNGYPIFQWSE”, “not failed”; as for “MEIGLSLGLKSDEGGLKLSLSECGCHVEDITIELEGGASWFYQGMVNAFKDQIGSSVESTIAKKLTEGVSDLDSFLQSLPKEIPVDDNADLNVTFTSDPILRNSSITFEIDGLFTKGETNQVLKSFFKKSVSLVICPGNSKMLGISVDEAVFNSAAALYYNADFVQWVVDKIPEQSLLNTARWRFIIPQLYKKYPNQDMNLNISLSSPPLVKISEQYVGANVNADLVINVLDANQVIPVACISLMIRGSGALRVMGNNLGGSVSLEDFSMSLKWSNIGNLHLHLLQPIVWTVIQTVFVPYANDHLEKGFPLPIMHGFTLQNAEIICSESEITVCSDVAYLDSSQQPQWL”, “failed”. As for “MSAITRYLAMLRLFGMLLCAAAIPSVATATVPVTVAVAASDVEEEAVEASAVGAEAEAARDAGYESAEVPALARRVTDLTATLDAAERARLEASLAALEARKGAQVAILMVPSTYPDSIEAYATRVFEAWKLGRKGIDDGVLVLVAKDDRRMRIEVGYGLEGTITDIDAGRIIREYMTPAFRQQDYAGGLEAAAQRLVRLIDGEALPPPPRDPLEPGAVRQTLAIAFLLGALGGVALLVRPRAWYWTLGAVVALAAALALGRHWPAGAMVALAEMVAVLGVGFGALLKYSRGARWFFAILVLYALGLFWAYRRYGLPVLHYGLAVPLSLGLSLLMLAGAWQGLRRGRRWAYLPGLLGLLLTLALECLLLLVDDPLNSIEALIILPAACLPLLIGCNFSAGGSGGGRRRGGDYASSSGSSSSSSSSSSSDSFSGGGGSSGGGGASGSWLEHHHHHH”, the entry is “failed”.

For “MAVSHSVKERTISENSLIILLQGLQGRVTTVDLRDESVAHGRIDNVDAFMNIRLAKVTYTDRWGHQVKLDDLFVTGPNVRYVHIPDDVNITSTIEQQLQIIHRVRNFGGKGQGRWEFPPKNCK”, the protein production entry is “failed”.

As for “PRPAVSVAPTTEAESFVQDRIEEDGLHVVHFWAPWCANSRNELDNGWAGLVADNPDVTFTFVTVWNDDESGAAMLNDYNLPDRVVEVTQPDLGPSDTEANRRYSFLGLPVTWIPSTWIFHSNGELAFAMNYGEMEMQTVQRLLDATSADW”, the protein production entry is “failed”. For “MSRAKAAPVAGPEVAANRAGRQARIVAILSSAQVRSQNELAALLAAEGIEVTQATLSRDLEELGAVKLRGADGGTGIYVVPEDGSPVRGVSGGTDRMARLLGELLVSTDDSGNLAVLRTPPGAAHYLASAIDRAALPQVVGTIAGDDTILVVAREPTTGAQLAGMFENLR”, the protein production result is recorded as “not failed”. As for “MPKEKYEPPDPRRMYTIMSSEEAANGKKSHWAELEISGKVRSLSSSLWSLTHLTALHLSDNSLSCIPSDIAKLHNLVYLDLSHNQIQSLPAELGNMVSLRELHLNYNQLRVLPFELGKLFQLQTLSLKGNPLTQDILNLCLEPDGTRRLLNYLLDNLSVSTEQPPPRSWIMLQEPDRTRPTALFSVMCYNVLCDKYATRQLYGYCPSWALNWDYRKKAIIQEILSCNADIISLQEVETEQYYSFFLVELKERGYNGFFSPKSRARTMSEQERKHVDGCAIFFKTEKFTLVQKHTVEFNQLAMANSEGSEAMLNRVMTKDNIGVAVLLELRKELIEMSSGKPHLGTEKQLILVANAHMHWDPEYSDVKLVQTMMFLSEVKNIIDKASRSLKSSVLGECGTIPLVLCADLNSLPDSGVVEYLSTGGVETNHKDFKELRYNESLTNFSCNGKNGMTNGRITHGFKLKSAYENGLMPYTNYTFDFKVSFHSLIFISMFCNFLSLKHQCML”, the entry is “failed”; as for “MAIGMSELKKGLKIELGGVPYRIVEYQHVKPGKGAAFVRAKIKSFLDGKVIEKTFHAGDKCEEPNLVEKTMQYLYHDGDTYQFMDIESYEQIALNDSQVGEASKWMLDGMQVQVLLHNDKAISVDVPQVVALKIVETAPNFKGDTSSASKKPATLETGAVVQVPFHVLEGEIIKVNTETEEYLEKVK”, “failed”. The value for “MKTLVIVAHPNLETSVVHKRWVEELKKYPEKYTVHELSDVYPDGNIDAEKEQKLVESHGNLVLQFPIYWFNCPPLLKKWLDDVLAYGWAYGSNGGDRLNNRKVALGVSAGIKEEDYRENGRYRYTLEQILVPFETTFRYCRADYRSFFAFYGKEKEPGGNEEEENEPGAGELEKSARDYLHFIDHM” was “failed”; that for “ELGLRSKTNVVSLDKIIIDKKSSLITGFPEFRMVWKVVRQRVVDDLVSVLDTDYLDMELIPNLTRQIAEQSIYSYIENGLKLLIDYAQKEITIDHSSDRDKILMDIGKDPYVVSIKSKVYLQDGRQFQFTESRHKLEKFRFVDFAKRKK” was “not failed”; that for “MSKREDEGCARKRRTEAGQRSEDCMNPNSVVISAFKVFQQELDTRYDKYERLVKISRDVTIESKRTIFLLHRVASVPDVEEILNEAEVKLDGVRQKIGQIAEELRGEDLHQFHRAFTPGIQEYVEAVSFHHFIRHRSLISLEEINARLVFIRDNNKAVGEGTFSSPCVLTFQITPTDYLLGVADLTGELMRMCISSVGNGDMDTPFQLSGFLRQIHDGFSLIGNTGPYEVSKKLHALRQSLGKVEDACYTLRVRGSEIPKHMLADVFSSRAAHIDPDDAMA” was “not failed”.

Take “MVPEITIDVNVFPSPRKSSSNTVEINLKRESDDKCDDAPLFQITQLILKDVVNFDPHKTSPLLETIFPDSISGTRLCVEMALASERVPAPFDMYLHVTVRFVEESTSSSPLENKTCAICLEDMSQDVHDYQEMPNCPHVFHNDCIYKWLGHSNLCPLCRTVLEDEDDDDYPYYS”: the protein production entry is recorded as “failed”.
